In patent publication US20230137139A1, “BIOSYNTHESIS OF CANNABINOIDS AND C[…]” (priority 2020, published 2023):

B1: t861551 (protein)
chain: MGNTTSIAGRDCLISALGGNSALAVFPNQLLWTADVHEYNLNLPVTPAAITYPETAEQIAGIVKCASDYDYKVQARSGGHSFGNYGLGGTDGAVVVDMKHFNQFSMDDQTYEAVIGPGTTLNDVDIELYNNGKRAMAHGVCPTIKTGGHFTIGGLGPTARQWGLALDHVEEVEVVLANSSIVRASNTQNQDVFFAVKGAAADFGIVTEFKVRTEPAPGLAVQYSYTFNLGSTAEKAQFVKDWQSFISAKNLTRQFYNNMVIFDGDIILEGLFFGSKEQYDALGLEDHFAPKNPGNILVLTDWLGMVGHALEDTILKLVGNTPTWFYAKSLGFRQDTLIPSAGIDQFFEYIANHTAGTPAWFVTLSLEGGAINDVAEDATAYAHRDVLFWVQLFMVNPLGPISETTYEFTDGLYDVLARAVPESVGHAYLGCPDPRMENAPQKYWRTNLPRLQELKEELDPKNTFHHPQGVIPA
B2: t861588 (protein)
chain: MGNTTSIAAGRDCLLSAVGGNHAHVAFQDQLLYQVTAVEPYNLNIPVTPAAVTYPQSADEIAAVVKCASEYGYKVQARSGGHSFGNYGLGGEDGAIVVEMKHFNQFSMDESTYTATIGPGITLGDLDTALYNAGHRAMAHGICPTIRTGGHLTMGGLGPTARQWGLALDHVEEVEVVLANSSIVRASNTQNQDILFAIKGAAASFGIVTEFKVRTEAAPGVAVQYSFTFNLGTPAEKAKLVKDWQAFIAQEDLTWKFYSNMNIFDGQIILEGIYFGSKEEYDALGLEKRFPSSEAGTVLVLTDWLGMVGHGLEDVILRLVGNTPTWFYAKSLGFTPRALIPDSAIDEFLNYIHENTPGTVSWFVTLSLEGGAINKVPGDATAYGHRDVLFWVQIFMINPLGPVSQTTYGFADGLYDVLAKAVPNSAGHAYLGCPDPRMPNAQQAYWRSNLPRLEELKGELDPKDIFHNPQGVMVVS
modifications: N- and C-terminal signal peptides
B3: t861557 (protein)
chain: MLKTIAAVVFICSQAFLVRADLKSELTALGVGAVFPGDSVYTSDAKPYNLRFDFKPAAITFPNTPADVSQIVQIAGKYAHKVAPRGGGHSYISNGVGGMDNSIIADMSHFKSIVVHTNNDTATIETGNRLGDIALALFQYGRGMPHGACPYVGIGGHANFGGFGFISRSWGLTLDVVEAIDLVLANGTITTVSATQNPDLYWAMRGSGSSFGITTAIHVRTFSAPASGIIALDTWYLNLEQAVRALSSFQDFAHNTVTLPSYFGGEFVVNAGPSPGLLSITFFSGFWGPPNQYNSTLAPWKNSMPFPPNTTSYSQGNYIESLSARFGGAPLDTSLGPDNTDTFYVKSLIVPQVTISDEGAQVGISDKAWRALFQYLINEQPNLPVDWFIEVELWGGQNSAINAVPQASTAFAYRDLLWTLQMYSYTPNHQPPYPDAGFAFNDGMANSIIHNMPNGWNYGAYTNYVDNRLDDWQRLYYANHYPALQALKSRYDPSDTFSFPTSIELL
B4: t861559 (protein)
chain: MAPSISFSLLQISLLAYSGLVSGDFSLRQCLESAVSRVAFEGDPFYQLLSVRPYNLDISIVPAAVAFPADTNEVAAVVRCAAQNGYQVQAKSGGHSYANHGLGGTNGAVVVNLENLQHFSMNTTTWEATIGAGTLLGDVTKRLSDAGGRAMAHGTCPQVGSGGHFTIGGLGPSSRQFGAALDHIIEAEVVLANSSIIRASETENPDVFFAVRGAASGFGIVTEFKVRTEPEPGQAVRYSYSFSFSDTATRADLFKKWQAYVTQPDLPRELASTLTILEHGMFITGTFFGSKEEYNALKIETEFPGFAKGGTLVLDDWLGLVSNWAEDLLLSEEEIEQMFEYIDNVDKGTLLWFAIFDLQGGAVGDVPVDATAYAHRDTLIWLQSYAINLFGRISETTVEFLERLNELTLTSTAKTVPYAAYPGYVDPRLTDAQAAYWGSNLARLNRIKAEIDPNNVFHNPQSVRPASG
B5: t861586 (protein)
chain: MAPSISFSLLQISLLAYSGLVSGDFSLRQCLESAVSRVAFEGDPFYQLLSVRPYNLDISIVPAAVAFPADTNEVAAVVRCAAQNGYQVQAKSGGHSYANHGLGGTNGAVVVNLENLQHFSMNTTTWEATIGAGTLLGDVTKRLSDAGGRAMAHGTCPQVGSGGHFTIGGLGPSSRQFGAALDHIIEAEVVLANSSIIRASETENPDVFFAVRGAASGFGIVTEFKVRTEPEPGQAVRYSYSFSFSDTATRADLFKKWQAYVTQPDLPRELASTLTILEHGMFITGTFFGSKEEYNALKIETEFPGFAKGGTLVLDDWLGLVSNWAEDLLLSEEEIEQMFEYIDNVDKGTLLWFAIFDLQGGAVGDVPVDATAYAHRDTLIWLQSYAINLFGRISETTVEFLERLNELTLTSTAKTVPYAAYPGYVDPRLTDAQAAYWGSNLARLNRIKAEIDPNNVFHNPQSVRPASG
B6: t861567 (protein)
chain: MDSNTWEATFGSGFLLGELDKHLHANGNRAMAHGTCPGVGMGGHATIGGIGPSSRLWGTTLDHVLQVEVVTADGKIQRASKTQNPDLFWALQGAGASFGIITEFVVRTEPEPGSVVEYTYSVSLGKQSDMAPLYKQWQALVGDPSLDRRFTSLFIAEPLGVLITGTFYGTMYEWHASGIPDKLPRGPISVTVMDSLGSLAHIAEKTGLYLTNVPTSFASRSLALRQQDLLSEQSIDDLFEYMGSANADTPLWFVIFDNEGGAIADVPDNSTAYPHRDKVIVYQSYSVGLLGVTDKMIKFLDGVQDIVQRGAPNAHTTYAGYINPQLDRKAAQQFYWGDKLPRLQQIKKQYDPNNVFCNPQSIYPAEDMSDG
B7: t861555 (protein)
chain: MGNTTSIAGRDCLISALGGNSALAVFPNELLWTADVHEYNLNLPVTPAAITYPETAAQIAGVVKCASDYDYKVQARSGGHSFGNYGLGGADGAVVVDMKHFTQFSMDDETYEAVIGPGTTLNDVDIELYNNGKRAMAHGVCPTIKTGGHFTIGGLGPTARQWGLALDHVEEVEVVLANSSIVRASNTQNQDVFFAVKGAAANFGIVTEFKVRTEPAPGLAVQYSYTFNLGSTAEKAQFVKDWQSFISAKNLTRQFYNNMVIFDGDIILEGLFFGSKEQYDALGLEDHFAPKNPGNILVLTDWLGMVGHALEDTILKLVGNTPTWFYAKSLGFRQDTLIPSAGIDEFFEYIANHTAGTPAWFVTLSLEGGAINDVAEDATAYAHRDVLFWVQLFMVNPVGPISDTTYEFTDGLYDVLARAVPESVGHAYLGCPDPRMEDAQQKYWRTNLPRLQELKEELDPKNTFHHPQGVMPA
B8: t861563 (protein)
chain: MARVPALFLGLSSVCLLVFFCSLINPTTPLHQHGKQTSIAGRDCLVSALGGNTGLVAFQDQLLYQTTAVHEYNLNIPVTPAAITYPETSEQIAAVVKCASEYDYKVQARSGGHSFGNYGLGGADGAVVVDMKHFTQFSMDEQTYEAVIGPGTTLGDVDTELYNNGKRAMAHGICPTISTGGHFTMGGLGPTARQWGLALDHVEEVEVVLANSSIVRASNTQNQEVFFAVKGAAASFGIVTEFKVRTQPAPGLAVQYSYTFNLGSSAEKAQFVKDWQSFISAKNLTRQFYTNMVIFDGNIILEGLFFGSKEQYEALGLEDRFVPKNPGNILVLTDWLGMVGHALEDTILRLVGNTPTWFYAKSLGFTPDTLIPSSGIDEFFDYIENNKAGTLTWFVTLSLEGGAINDVPKDATAYGHRDVLFWVQIFMASPTGPVSSTTYDFADGLYNVLTKAVPESEGHAYLGCPDPKMADAQQKYWRQNLPRLEELKATLDPKDTFHNPQGILPA
B9: t861562 (protein)
chain: MGNTTSIAAGRDCLISAVGGNAAHVAFQDQLLYQATAVEPYNLNIPITPAAITYPQSADEIAAVVKCASEYGYKVQARSGGHSFGNYGLGGEDGAIVVEMKHFSQFSMDESTYIATIGPGITLGDLDTELYNVGHRAMAHGICPTIRTGGHLTVGGLGPTARQWGLALDHVEEVEVVLANSSIVRASDTQNQDIFFAIKGAAASFGIVTEFKVRTEQAPGLAVQYSYTFNLGTPAEKAKLVKDWQAFIAQENLSWKFYSNMVVFDGQIILEGLYFGSKEEYDALGLEQRFPPSEAGNVLVLTDWLGMVGHELEDTILRLVGNTPTWFYAKSLGFTPRALIPDSAIDDLFNYIHENNPGTLAWFVTLSLEGGAINTVPEHATAYGHRDVLFWVQIFVINPLGPVSQTTYGFADGMYDVLAQAVPESAGHAYLGCPDPRMPNAQQAYWRSNLPRLEELKGDLDPKGIFHNPQGVMVVS
B10: t861568 (protein)
chain: MGNSASVAGRACFVAAVGHDPNLVTFRGDLLYEFRIQPSYNLAIPVHPTVVTYPKTTAQVAEIVSCAAAQNYKMQAYSGGHSYGNYGLGGEDGHVVVDLKNFQDFTMDPDTHVATIGAGTSLGDLQDRLWHAGGRAMAHGSCPQVGVGGHFTIGGLGMMSRQWGMSLDHVVEAQVVLANSSVVTASDTQNQDIFWAIKGAAASFGIVTKFKVRTHGVPKAAIQYQYTFSQGDVLDKVKLFMAWQNIVAKPNLTRNFSTELTIFQDGIMIMGSFFGTRDEFHKFELENDLPLQGLGNVAYITNWLSLVAHTAEDYLLRLTGNVLTSFYAKSLSFTADELFNEQGLVTLFTYLDAAPKGTPTWWVIFDLEGGATNDVPVNATSYAHRDAIMWMQSYAVAGFEPPGFIIKRFLNRLHGVVIGNRAPGAVRSYPGYVDPYLRNAQETYWGPNLARLQDIKTAVDPDDVFHNPQSVKVNSLSPPDPGSHDV

Test system: CBCA production
Test: In vivo TS activity assay, Example 4 CBCAS enzymes with and without signal peptides, no pH adjustment
Assay type: cell-based
Conditions: strains with (Y) or without (N) N-terminal and C-terminal signal peptides; no pH adjustment at Day 4; S. cerevisiae
Description: An assay to detect TS activity was conducted as follows: each thawed glycerol stock of candidate CBCAS transformants was stamped into a well of YEP+4% dextrose media. Samples were incubated at 30° C. in a shaking incubator for 2 days. A portion of each of the resulting cultures was stamped into a well of YEP+4% galactose+1 mM olivetolic acid (FIG. 1 Structure 6a). Samples were incubated at 20° C. and shaken in a shaking incubator for 4 days. Every 24 hours during those 4 days, 2% galactose and 1 mM olivetolic acid were spiked into the cultures. Sodium citrate buffer adjusted to pH 5.5 was added to each well at a final concentration of 100 mM. Samples were incubated at 20° C. and shaken in a shaking incubator for 2 days. A portion of each of the resulting production cultures was stamped into a well of phosphate buffered saline (PBS). Optical measurements were taken on a plate reader, with absorbance measured at 600 nm and fluorescence at 528 nm with 485 nm excitation. Samples were incubated at 30° C. in a shaking incubator for 2 days. 100% methanol was stamped into the production cultures in half-height deepwell plates. Plates were heat sealed and frozen. Samples were then thawed for 30 min and spun down at 4° C. A portion of the supernatant was stamped into half-area 96 well plates. CBCA, THCA, and CBDA production in the samples was quantified via liquid chromatography-mass spectrometry (LC-MS).
A library of 20 CBCAS enzymes selected from Example 1 and 3 was synthesized, including versions of the CBCAS enzymes with and without the N-terminal MFalpha2 signal peptide (SEQ ID NO: 16) and C-terminal HDEL signal peptide (SEQ ID NO: 17). Each candidate enzyme expression construct was transformed into an S. cerevisiae CEN.PK strain that also expressed a prenyltransferase enzyme capable of catalyzing reaction R^4 in FIG. 2. Strain t861555 expressing the A. niger CBCAS identified in Example 1, carrying both the Mfalpha2 and HDEL signal peptides was included in the library screen as a positive control for enzyme activity. Strain t861565 expressed the same A. niger CBCAS without the Mfalpha2 and HDEL signal peptides.
The strains were screened using the assay described in Example 1 with the following exception: at Day 4 samples were not subjected to a pH adjustment and a further 2 days of incubation at 20° C.

Molecule | Average CBCA
B1 | 17501.94 µg/L
B2 | 42686.95 µg/L
B3 | 520.64 µg/L
B4 | 0.00 µg/L
B5 | 0.00 µg/L
B6 | 0.00 µg/L
B7 | 21237.64 µg/L
B8 | 4821.60 µg/L
B9 | 55737.91 µg/L
B10 | 0.00 µg/L
